Values belong to the binder of their own block, whether it stands above or below them.
Columns and labels:
CI-MPR receptor [1] = target: T1, CI-MPR receptor; assay: CI-MPR plate-binding assay in presence of M6P, bound PPT1 by activity assay
T1 construct: also called IGF2/CI-MPR; IGF2/Mannose-6-phosphate receptor
Method: (§1) In the binding assay, a plate was first coated with CI-MPR. Next, a sample containing the enzyme of interest was incubated on the plate. The plate was washed so that only substances bound to CI-MPR remain on the plate. The amount of the enzyme of interest bound to the plate was determined by enzyme assay or by mass spec. The binding assay was performed at a range of concentrations of the enzyme of interest in order to obtain a binding curve.
CI-MPR plate-binding assay performed as previously described, then amount bound was determined by PPT1 activity assay.

CI-MPR receptor [2] = target: T1, CI-MPR receptor; assay: CIMPR plate binding assay, bound NAGLU activity (4MU released)
CI-MPR receptor [3] = target: T1, CI-MPR receptor; assay: CIMPR binding assay, PPT1 conditioned media, curves starting at 25 nM, bound PPT1 activity; the table prints no units, units of the axes
CI-MPR receptor [4] = target: T1, CI-MPR receptor; assay: CIMPR binding assay, PPT1 conditioned media, dilution starting at 50 nM, bound PPT1 activity; the table prints no units, units of the axes
CI-MPR receptor [5] = target: T1, CI-MPR receptor; assay: CI-MPR-coated plate binding assay, conditioned media of HEK 293 cells, bound TPP1 activity
Method: as §1

Kd (CI-MPR receptor [2]): 325 nM
B3: WT NAGLU (enzyme)
enzyme: DEAREAAAVRALVARLLGPGPAADFSVSVERALAAKPGLDTYSLGGGGAARVRVRGSTGVAAAAGLHRYLRDFCGCHVAWSGSQLRLPRPLPAVPGELTEATPNRYRYYQNVCTQSYSFVWWDWARWEREIDWMALNGINLALAWSGQEAIWQRVYLALGLTQAEINEFFTGPAFLAWGRMGNLHTWDGPLPPSWHIKQLYLQHRVLDQMRSFGMTPVLPAFAGHVPEAVTRVFPQVNVTKMGSWGHFNCSYSCSFLLAPEDPIFPIIGSLFLRELIKEFGTDHIYGADTFNEMQPPSSEPSYLAAATTAVYEAMTAVDTEAVWLLQGWLFQHQPQFWGPAQIRAVLGAVPRGRLLVLDLFAESQPVYTRTASFQGQPFIWCMLHNFGGNHGLFGALEAVNGGPEAARLFPNSTMVGTGMAPEGISQNEVVYSLMAELGWRKDPVPDLAAWVTSFAARRYGVSHPDAGAAWRLLLRSVYNCSGEACRGHNRSPLVRRPSLQMNTSIWYNRSDVFEAWRLLLTSAPSLATSPAFRYDLLDLTRQAVQELVSLYYEEARSAYLSKELASLLRAGGVLAYELLPALDEVLASDSRFLLGSWLEQARAAAVSEAEADFYEQNSRYQLTLWGPEGNILDYANKQLAGLVANYYTPRWRLFLEALVDSVAQGIPFQQHQFDKNVFQLEQAFVLSKQRYPSQPRGDTVDLAKKIFLKYYPRWVAGSW
notes: also called untagged NAGLU

Kd (CI-MPR receptor [3]): 3.87 nM
Kd (CI-MPR receptor [4]): 3.41 nM
B4: PPT1-104 (enzyme)
fusion protein: DPPAPLPLVIWHGMGDSCCNPLSMGAIKKMVEKKIPGIYVLSLEIGKTLMEDVENSFFLNVNSQVTTVCQALAKDPKLQQGYNAMGFSQGGQFLRAVAQRCPSPPMINLISVGGQHQGVFGLPRCPGESSHICDFIRKTLNAGAYSKVVQERLVQAEYWHDPIKEDVYRNHSIFLADINQERGINESYKKNLMALKKFVMVKFLNDSIVDPVDSEWFGFYRSGQAKETIPLQETSLYTQDRLGLKEMDNAGQLVFLATEGDHLQLSEEWFYAHIIPFLGRPRAVPTQGGSGSGSTSSSRTLCGGELVDTLQFVCGDRGFLFSRGGGGSRGILEECCFRECDLALLETYCATPARSE

The next lines start with the binder.

B1: PPT1-33 (wt-PPT1-vIGF2-8Q) (enzyme)
chain: DPPAPLPLVIWHGMGDSCCNPLSMGAIKKMVEKKIPGIYVLSLEIGKTLMEDVENSFFLNVNSQVTTVCQALAKDPKLQQGYNAMGFSQGGQFLRAVAQRCPSPPMINLISVGGQHQGVFGLPRCPGESSHICDFIRKTLNAGAYSKVVQERLVQAEYWHDPIKEDVYRNHSIFLADINQERGINESYKKNLMALKKFVMVKFLNDSIVDPVDSEWFGFYRSGQAKETIPLQETSLYTQDRLGLKEMDNAGQLVFLATEGDHLQLSEEWFYAHIIPFLGRPRAVPTQGGSGSGSTSSSRTLCGGELVDTLQFVCGDRGFLFSRPASRVSRRSRGIVEECCFRECDLALLETYCATPARSE
notes: Whole entry; it includes the native PPT1 signal peptide
Bmax (CI-MPR receptor [1]): 9.19
Relative Kd (CI-MPR receptor [1]): 0.143

B2: PPT1-29 (BiP2aa-vIGF2-PPT1) (enzyme)
chain: MKLSLVAAMLLLLWVALLLLSAARAAASRTLCGGELVDTLQFVCGDRGFLFSRPASRVSRRSRGIVEECCFRSCDLALLETYCATPARSEGGGGSGGGGSRPRAVPTQDPPAPLPLVIWHGMGDSCCNPLSMGAIKKMVEKKIPGIYVLSLEIGKTLMEDVENSFFLNVNSQVTTVCQALAKDPKLQQGYNAMGFSQGGQFLRAVAQRCPSPPMINLISVGGQHQGVFGLPRCPGESSHICDFIRKTLNAGAYSKVVQERLVQAEYWHDPIKEDVYRNHSIFLADINQERGINESYKKNLMALKKFVMVKFLNDSIVDPVDSEWFGFYRSGQAKETIPLQETSLYTQDRLGLKEMDNAGQLVFLATEGDHLQLSEEWFYAHIIPFLG
notes: Whole entry; it includes the modified BiP signal peptide
Bmax (CI-MPR receptor [1]): 8.98
Relative Kd (CI-MPR receptor [1]): 0.107

B5: PPT1-32 (wt-PPT1-vIGF2-32) (enzyme)
chain: B4 fusion protein
notes: as for B1
Bmax (CI-MPR receptor [1]): 6.05
Relative Kd (CI-MPR receptor [1]): 0.121

B6: Natural hTTP1 (enzyme)
enzyme: SYSPEPDQRRTLPPGWVSLGRADPEEELSLTFALRQQNVERLSELVQAVSDPSSPQYGKYLTLENVADLVRPSPLTLHTVQKWLLAAGAQKCHSVITQDFLTCWLSIRQAELLLPGAEFHHYVGGPTETHVVRSPHPYQLPQALAPHVDFVGGLHRFPPTSSLRQRPEPQVTGTVGLHLGVTPSVIRKRYNLTSQDVGSGTSNNSQACAQFLEQYFHDSDLAQFMRLFGGNFAHQASVARVVGQQGRGRAGIEASLDVQYLMSAGANISTWVYSSPGRHEGQEPFLQWLMLLSNESALPHVHTVSYGDDEDSLSSAYIQRVNTELMKAAARGLTLLFASGDSGAGCWSVSGRHQFRPTFPASSPYVTTVGGTSFQEPFLITNEIVDYISGGGFSNVFPRPSYQEEAVTKFLSSSPHLPPSSYFNASGRAYPDVAALSDGYWVVSNRVPIPWVSGTSASTPVFGGILSLINEHRILSGRPPLGFLNPRLYQQHGAGLFDVTRGCHESCLDEEVEGQGFCSGPGWDPVTGWGTPNFPALLKTLLNP
notes: also called WT TPP1; TPP1 wildtype
EC50 (read off the curve) (CI-MPR receptor [5]): ~0.4 nM

B7: PPT1-101 (enzyme)
fusion protein: MKLSLVAAMLLLLWVALLLLSAARAAASRTLCGGELVDTLQFVCGDRGFLFSRGGGGSRGILEECCFRDCDLALLETYCATPARSEGGGGSGGGGSRPRAVPTQDPPAPLPLVIWHGMGDSCCNPLSMGAIKKMVEKKIPGIYVLSLEIGKTLMEDVENSFFLNVNSQVTTVCQALAKDPKLQQGYNAMGFSQGGQFLRAVAQRCPSPPMINLISVGGQHQGVFGLPRCPGESSHICDFIRKTLNAGAYSKVVQERLVQAEYWHDPIKEDVYRNHSIFLADINQERGINESYKKNLMALKKFVMVKFLNDSIVDPVDSEWFGFYRSGQAKETIPLQETSLYTQDRLGLKEMDNAGQLVFLATEGDHLQLSEEWFYAHIIPFLG
Kd (CI-MPR receptor [3]): 4.57 nM
Kd (CI-MPR receptor [4]): 4.12 nM

— patent US20240091321A1 (AMICUS THERAPEUTICS, published 2024)
